We go through 3 molecules from patent US20110280881A1, “NOVEL ANTI-HSP90 MONOCLONAL ANTIBODY” (RIKEN, priority 2010, published 2011).

Sequences and labels used below:
B1: IL-4: cytokine (protein, UniProt P05112 25-153, looked up)
Interleukin-4: HKCDITLQEIIKTLNSLTEQKTLCTELTVTDIFAASKNTTEKETFCRAATVLRQFYSHHEKDTRCLGATAQQFHRHKQLIRFLKRLDRNLWGLAGLNSCPVKEANQSTLENFLERLKTIMREKYSKCSS
B2: IL-23: cytokine (protein, UniProt Q9NPF7 20-189; P29460 23-328, looked up)
Interleukin-23 subunit alpha: RAVPGGSSPAWTQCQQLSQKLCTLAWSAHPLVGHMDLREEGDEETTNDVPHIQCGDGCDPQGLRDNSQFCLQRIHQGLIFYEKLLGSDIFTGEPSLLPDSPVGQLHASLLGLSQLLQPEGHHWETQQIPSLSPSQPWQRLLLRFKILRSLQAFVAVAARVFAHGAATLSP
Interleukin-12 subunit beta: IWELKKDVYVVELDWYPDAPGEMVVLTCDTPEEDGITWTLDQSSEVLGSGKTLTIQVKEFGDAGQYTCHKGGEVLSHSLLLLHKKEDGIWSTDILKDQKEPKNKTFLRCEAKNYSGRFTCWWLTTISTDLTFSVKSSRGSSDPQGVTCGAATLSAERVRGDNKEYEYSVECQEDSACPAAEESLPIEVMVDAVHKLKYENYTSSFFIRDIIKPDPPKNLQLKPLKNSRQVEVSWEYPDTWSTPHSYFSLTFCVQVQGKSKREKKDRVFTDKTSATVICRKNASISVRAQDRYYSSSWSEWASVPCS
B3: IL-10: cytokine (protein, UniProt P22301 19-178, looked up)
Interleukin-10: SPGQGTQSENSCTHFPGNLPNMLRDLRDAFSRVKTFFQMKDQLDNLLLKESLLEDFKGYLGCQALSEMIQFYLEEVMPQAENQDPDIKAHVNSLGENLKTLRLRLRRCHRFLPCENKSKAVEQVKNAFNKLQEKGIYKAMSEFDIFINYIEAYMTMKIRN

The test system of this experiment is DC2.4 cells and mouse GM-CSF-dependent BMDC. Description: Influence of cytokines on expression of cell surface HSP90 (FACS with 6H8). To be noted: BMDC, cytokines 100 ng/ml or 10 ng/ml. Type of experiment: cell-based. As to the method: In view of the possibility that cytokines are variation factors for the expression of cell surface HSP90, the influences of various cytokines on the expression of cell surface HSP90 were examined as described below.
The solid bars indicate the MFI for BMDC incubated in the presence of high concentrations of IFNs (as in FIG. 5B) or other cytokines (100 ng/ml); the grey bars indicate the MFI for BMDC incubated in the presence of low concentrations of IFNs (as in FIG. 5B) or other cytokines (10 ng/ml). The open bars indicate the MFI for BMDC incubated in the absence of the cytokines as negative controls.
In the case of B1, the “MFI of cell surface HSP90 after cytokine treatment versus negative control” value is “no significant difference from the negative control”.

For the molecule B2, the “MFI of cell surface HSP90 after cytokine treatment versus negative control” value is “no significant difference from the negative control”.

With B3, the “MFI of cell surface HSP90 after cytokine treatment versus negative control” value was “no significant difference from the negative control”.
